Assay results taken from paper PMC9412862.

Legend:
[1] = biological target: NS4b full-length (residues 1-249), C-terminal six-histidine tag (dengue virus serotype 1); experiment: SEC
[2] = biological target: NS4b full-length (residues 1-249), C-terminal six-histidine tag (dengue virus serotype 1); experiment: BLI

NS4b full-length (residues 1-249), C-terminal six-histidine tag (natural protein)
stoichiometry N [1]: 2

helicase domain of DENV NS3 (NS3Hel), residues 178-619, C-terminal 6-histidine tag (domain or fragment)
Kd [2]: 508 nM
